Results taken from US20250250357A1 (NANJING ZAIMING PHARMACEUTICAL, published 2025).

T1: monkey MSLN on HEK293T-monkey MSLN recombinant cells (monkey)
T1 construct: Full-length precursor as transfected; processing on the cell is not described; also called HEK293-monkey MSLN
T1 chain: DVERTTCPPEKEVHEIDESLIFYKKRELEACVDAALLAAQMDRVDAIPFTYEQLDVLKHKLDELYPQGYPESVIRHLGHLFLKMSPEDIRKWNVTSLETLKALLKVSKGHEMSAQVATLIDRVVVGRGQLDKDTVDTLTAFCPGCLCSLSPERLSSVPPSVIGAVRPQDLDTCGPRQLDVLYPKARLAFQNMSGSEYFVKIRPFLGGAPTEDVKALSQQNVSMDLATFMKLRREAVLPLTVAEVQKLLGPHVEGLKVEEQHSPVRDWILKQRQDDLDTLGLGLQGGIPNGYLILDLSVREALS


Columns and labels:
[1] = biological target: T2, human MSLN-FL-his protein (human, UniProt Q13421 296-580); experiment: ELISA, coated antigen; antibody 1 nM
T2 construct: also called human MSLN full-length protein; hMSLN-FL-his; not shown: His tag

[2] = biological target: T3, human MSLN-R1-his protein (human, UniProt Q13421 296-390); experiment: ELISA, coated antigen; no antibody (blank, column 'none')
T3 construct: also called human MSLN-R1 protein; hMSLN-R1-his; not shown: His tag

[3] = biological target: T3, human MSLN-R1-his protein; experiment: ELISA, coated antigen; antibody 0.0001 nM
[4] = biological target: T3, human MSLN-R1-his protein; experiment: ELISA, coated antigen; antibody 0.1 nM
[5] = biological target: T3, human MSLN-R1-his protein; experiment: ELISA, coated antigen; antibody 10 nM
[6] = biological target: T4, human MSLN-R2-his protein (human, UniProt Q13421 391-486); experiment: ELISA, coated antigen; antibody 100 nM
T4 construct: also called human MSLN-R2 protein; hMSLN-R2-his; not shown: His tag

[7] = biological target: T3, human MSLN-R1-his protein; experiment: ELISA, coated antigen; antibody 0.01 nM
[8] = biological target: T3, human MSLN-R1-his protein; experiment: ELISA, coated antigen; antibody 0.001 nM
[9] = biological target: T2, human MSLN-FL-his protein; experiment: ELISA, coated antigen; antibody 0.0001 nM
[10] = biological target: T4, human MSLN-R2-his protein; experiment: ELISA, coated antigen; antibody 1 nM
[11] = biological target: T2, human MSLN-FL-his protein; experiment: ELISA, coated antigen; antibody 0.1 nM
[12] = biological target: T2, human MSLN-FL-his protein; experiment: ELISA, coated antigen; antibody 10 nM
[13] = biological target: T4, human MSLN-R2-his protein; experiment: ELISA, coated antigen; antibody 0.0001 nM
[14] = biological target: T4, human MSLN-R2-his protein; experiment: ELISA, coated antigen; antibody 10 nM
[15] = biological target: T2, human MSLN-FL-his protein; experiment: ELISA, coated antigen; antibody 0.01 nM
[16] = biological target: T4, human MSLN-R2-his protein; experiment: ELISA, coated antigen; no antibody (blank, column 'none')
[17] = biological target: T3, human MSLN-R1-his protein; experiment: ELISA, coated antigen; antibody 1 nM
[18] = biological target: T4, human MSLN-R2-his protein; experiment: ELISA, coated antigen; antibody 0.1 nM
[19] = biological target: T4, human MSLN-R2-his protein; experiment: ELISA, coated antigen; antibody 0.001 nM
[20] = biological target: T2, human MSLN-FL-his protein; experiment: ELISA, coated antigen; antibody 100 nM
[21] = biological target: T2, human MSLN-FL-his protein; experiment: ELISA, coated antigen; antibody 0.001 nM
[22] = biological target: T4, human MSLN-R2-his protein; experiment: ELISA, coated antigen; antibody 0.01 nM
[23] = biological target: T3, human MSLN-R1-his protein; experiment: ELISA, coated antigen; antibody 100 nM
[24] = biological target: T2, human MSLN-FL-his protein; experiment: ELISA, coated antigen; no antibody (blank, column 'none')
[25] = biological target: T1, monkey MSLN on HEK293T-monkey MSLN …; experiment: FACS, HEK293T-monkey MSLN cells
[26] = biological target: T5, human MSLN-R3 on HEK293T-hMSLN-R3 recombinant cells (human, UniProt Q13421 487-606); experiment: FACS, HEK293T-hMSLN-R3 cells
T5 construct: the C-terminal limit is uncertain; also called human MSLN-R3 membrane protein

[27] = biological target: human MSLN on OVCAR3 tumor cells (human, UniProt Q13421 296-598); experiment: FACS, OVCAR3 cells
Sequence of human MSLN on OVCAR3 tumor cells (Q13421 other isoform, or with tags, fused parts or gaps): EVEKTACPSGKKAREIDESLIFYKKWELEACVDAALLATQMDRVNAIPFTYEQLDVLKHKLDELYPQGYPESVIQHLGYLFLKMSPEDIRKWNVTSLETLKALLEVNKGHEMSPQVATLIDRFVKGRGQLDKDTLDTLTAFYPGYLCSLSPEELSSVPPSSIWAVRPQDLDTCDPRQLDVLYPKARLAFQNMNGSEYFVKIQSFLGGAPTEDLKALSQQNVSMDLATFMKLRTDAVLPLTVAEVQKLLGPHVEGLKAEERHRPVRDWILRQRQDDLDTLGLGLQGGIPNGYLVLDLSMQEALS

T4 sequence (Q13421 other isoform, or with tags, fused parts or gaps): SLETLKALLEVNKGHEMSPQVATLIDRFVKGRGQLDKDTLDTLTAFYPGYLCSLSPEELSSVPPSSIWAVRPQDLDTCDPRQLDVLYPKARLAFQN
T2 sequence (Q13421 other isoform, or with tags, fused parts or gaps): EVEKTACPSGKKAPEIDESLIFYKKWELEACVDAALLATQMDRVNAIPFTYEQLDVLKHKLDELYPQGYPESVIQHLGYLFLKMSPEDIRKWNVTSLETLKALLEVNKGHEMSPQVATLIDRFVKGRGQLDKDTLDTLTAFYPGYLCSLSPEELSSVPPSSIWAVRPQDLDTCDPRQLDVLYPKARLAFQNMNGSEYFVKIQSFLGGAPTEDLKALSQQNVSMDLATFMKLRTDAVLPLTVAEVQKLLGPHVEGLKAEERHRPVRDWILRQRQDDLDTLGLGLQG
T3 sequence (Q13421 other isoform, or with tags, fused parts or gaps): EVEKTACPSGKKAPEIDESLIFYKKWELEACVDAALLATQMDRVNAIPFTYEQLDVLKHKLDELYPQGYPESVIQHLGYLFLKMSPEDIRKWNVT
T5 sequence (Q13421 495-614): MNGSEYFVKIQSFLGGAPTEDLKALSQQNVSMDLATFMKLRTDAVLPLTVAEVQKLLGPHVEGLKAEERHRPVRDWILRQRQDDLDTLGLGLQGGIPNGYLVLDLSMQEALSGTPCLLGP

Row | Binder | OD450 [1] [OD450] | OD450 [2] [OD450] | OD450 [3] [OD450] | OD450 [4] [OD450] | OD450 [5] [OD450] | OD450 [6] [OD450] | OD450 [7] [OD450] | OD450 [8] [OD450] | OD450 [9] [OD450] | OD450 [10] [OD450] | OD450 [11] [OD450] | OD450 [12] [OD450] | OD450 [13] [OD450] | OD450 [14] [OD450] | OD450 [15] [OD450] | OD450 [16] [OD450] | OD450 [17] [OD450] | OD450 [18] [OD450] | OD450 [19] [OD450] | OD450 [20] [OD450] | other results
1 | S009-F4-127.10 (antibody, human IgG1, kappa, V domains shown, Human-murine chimeric antibody, human IgG1/kappa constant regions) VH: EVQLQQSGPVLVKPGASVKMSCKASGYTFTDYYMNWVKQSHGKSPEWIGVINPYNDVISYNQKFKGKATLTVDKSSSTAYMELNSLTSEDSAVYYCANYGSSYYAMDYWGQGTSVTVSS VL: DVVMTQTPLSLSVSLGDQASISCRSSQSLVHSNGNTYLQWSLQKPGQSPNLLIYKVSNRFSGVPDRFSGSGSGTDFTLKISRVEAEDLGVYFCSQTTHVPFTFGGGTKLEIRR | 0.06 | 0.06 | 0.05 | 0.05 | 0.06 | 0.09 | 0.05 | 0.05 | 0.06 | 0.05 | 0.06 | 0.09 | 0.06 | 0.06 | 0.06 | 0.06 | 0.05 | 0.05 | 0.05 | 0.21 | OD450 [21]: 0.06 OD450; OD450 [22]: 0.05 OD450; OD450 [23]: 0.08 OD450; OD450 [24]: 0.06 OD450
2 | S009-F5-9.16 (antibody, human IgG1, kappa, V domains shown, Human-murine chimeric antibody, human IgG1/kappa constant regions) VH: EVQLRQSGPVLVKPGASVKMSCKASGYTFTDYFMNWVKPSHGKSLEWIGVINPSNGVINYNQRFKGKATLTVDKSSSTAYMELNSLTSEDSAVYYCARSYDFAWFAYWGQGTLVTVSA VL: DVLMTQTPLSLPVSLGDQASISCRSSQNIVHSNGNTYLEWYLQKPGQSPKLLIYTVSNRFSGVPDRFSGSGSGTDFTLKISRVEAEDLGVYYCFQGSHVPYTFGGGTKLEIKR | 0.06 | 0.04 | 0.05 | 0.04 | 0.05 | 0.13 | 0.04 | 0.04 | 0.04 | 0.04 | 0.04 | 0.19 | 0.04 | 0.06 | 0.04 | 0.05 | 0.04 | 0.04 | 0.04 | 1.12 | OD450 [21]: 0.04 OD450; OD450 [22]: 0.04 OD450; OD450 [23]: 0.09 OD450; OD450 [24]: 0.05 OD450
3 | S009-F6-76.1 (antibody, human IgG1, kappa, V domains shown, Human-murine chimeric antibody, human IgG1/kappa constant regions) VH: QVQLQQSGPELVKPGASVKISCKASGYTFTDYYINWVKQRPGQGLEWIGWIFPGRGSTFYYEKFKGKATLTVDKSSSTAYMLLSSLTSEDSAVYFCARRGDSAGYEDLDYWGQGTSVTVSS VL: NIVMTQSPKFMSMSVGERVTLSCKASENVVTYVSWYQQKPKQSPKLLIYGASKRYTGVPDRFTGSGSATDFTLTISSVQAEDLGDYHCGQSYSYPYTFGGGTKLEIKR | 2.87 | 0.04 | 0.04 | 0.04 | 0.04 | 0.33 | 0.04 | 0.04 | 0.1 | 0.12 | 2.4 | 2.87 | 0.05 | 0.2 | 1.09 | 0.05 | 0.04 | 0.07 | 0.04 | 2.83 | OD450 [21]: 0.29 OD450; OD450 [22]: 0.04 OD450; OD450 [23]: 0.06 OD450; OD450 [24]: 0.05 OD450
4 | F7.44.20 (scFv) EVQLQQSGPELVKPGASVKIPCKASGYTFTDYNMDWVKQSHGKSLEWIGDINPSTGGTIYNQKFNGKATLTEDKSASTVYMEFRSLTSDDTAVYYCARRRIGTGYFDVWGTGTTVTVSSGGGGSGGGGSGGGGSQIVLTQSPALMSASPGEKVTLTCSASSSVISSYLSWYQQKPGSSPKLLIYRTSNLASGVPARFSGSGSGTSYSLTISSMEAEDAASYFCHQWSSFPYTFGGGTKLEIK | – | – | – | – | – | – | – | – | – | – | – | – | – | – | – | – | – | – | – | – | EC50 [25]: 8.38 nM; Maximum_MFI [25]: 7040 MFI; EC50 [26]: 1.27 nM; Maximum_MFI [26]: 1450 MFI; EC50 [27]: 2.42 nM; Maximum_MFI [27]: 1600 MFI
5 | F7.44.20-VL-VH (scFv) QIVLTQSPALMSASPGEKVTLTCSASSSVISSYLSWYQQKPGSSPKLLIYRTSNLASGVPARFSGSGSGTSYSLTISSMEAEDAASYFCHQWSSFPYTFGGGTKLEIKGGGGSGGGGSGGGGSEVQLQQSGPELVKPGASVKIPCKASGYTFTDYNMDWVKQSHGKSLEWIGDINPSTGGTIYNQKFNGKATLTEDKSASTVYMEFRSLTSDDTAVYYCARRRIGTGYFDVWGTGTTVTVSS | – | – | – | – | – | – | – | – | – | – | – | – | – | – | – | – | – | – | – | – | EC50 [25]: 2.97 nM; Maximum_MFI [25]: 11100 MFI; EC50 [26]: 0.48 nM; Maximum_MFI [26]: 1850 MFI; EC50 [27]: 1.09 nM; Maximum_MFI [27]: 2920 MFI
